In publication PMC10925351 (bioRxiv, 2025):
Residue numbers refer to the chain shown, from its start. Names may count otherwise.

Assays:
Experiment in all cases: reconstitution of a complex by mixing purified proteins
[1] = biological target: T1, Clb2 (wild-type), 6xHis-tagged (S. cerevisiae, UniProt P24869 1-491)
T1 sequence: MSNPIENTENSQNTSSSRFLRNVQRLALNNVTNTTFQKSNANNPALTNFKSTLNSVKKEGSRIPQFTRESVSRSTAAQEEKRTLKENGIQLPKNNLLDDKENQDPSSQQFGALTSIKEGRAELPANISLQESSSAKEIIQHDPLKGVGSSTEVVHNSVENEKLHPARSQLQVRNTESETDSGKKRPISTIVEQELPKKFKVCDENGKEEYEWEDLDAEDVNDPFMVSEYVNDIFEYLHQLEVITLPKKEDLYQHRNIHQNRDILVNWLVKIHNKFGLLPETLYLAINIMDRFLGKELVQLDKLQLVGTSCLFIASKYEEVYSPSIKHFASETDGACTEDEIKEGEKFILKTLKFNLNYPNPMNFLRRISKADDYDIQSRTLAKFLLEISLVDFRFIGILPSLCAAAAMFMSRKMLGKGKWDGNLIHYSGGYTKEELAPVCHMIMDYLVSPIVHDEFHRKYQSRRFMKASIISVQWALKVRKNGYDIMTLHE

[2] = biological target: T2, Clb2-pp mutant (R366A, R379A, K383A), 6xHis-tagged (S. cerevisiae, UniProt P24869 1-491, R366A | R379A | K383A)
T2 sequence: T1 sequence with R366A, R379A, K383A

[3] = biological target: Clb2-Cdk1 complex (wild-type Clb2) (S. cerevisiae, UniProt P24869;P00546, phosphothreonine at T169 (by Cak1))
Sequence of Clb2-Cdk1 complex (wild-type Clb2) (P00546 whole entry, one chain of several): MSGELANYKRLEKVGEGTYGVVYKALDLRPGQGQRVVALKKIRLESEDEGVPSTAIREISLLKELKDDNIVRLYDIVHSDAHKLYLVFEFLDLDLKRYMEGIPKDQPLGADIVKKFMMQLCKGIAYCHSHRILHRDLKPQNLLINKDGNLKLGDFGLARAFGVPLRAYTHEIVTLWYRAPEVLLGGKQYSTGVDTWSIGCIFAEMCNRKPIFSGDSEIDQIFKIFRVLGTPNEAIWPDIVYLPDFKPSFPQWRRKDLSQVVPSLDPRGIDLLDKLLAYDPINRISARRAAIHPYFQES

B1: Cdk1 (Cdc28), T169-phosphorylated, from a GST-TEV-Cdk1 fusion (enzyme)
chain: not shown
modifications: phosphothreonine at T169 (by Cak1)
binding result [1]: binds
binding result [2]: binds

B2: Cks1 (wild-type) (natural protein)
chain: MYHHYHAFQGRKLTDQERARVLEFQDSIHYSPRYSDDNYEYRHVMLPKAMLKVIPSDYFNSEVGTLRILTEDEWRGLGITQSLGWEHYECHAPEPHILLFKRPLNYEAELRAATAAAQQQQQQQQQQQQQQQQHQTQSISNDMQVPPQIS
binding result [3]: binds

B3: Cks1 mutant (R33E, S82E, R102A) (natural protein)
chain: B2 chain with R33E, S82E, R102A
binding result [3]: binds
